Experimental data from patent publication CN114907476A.

Columns and labels:
[1] = biological target: Jurkat-hTIGIT-NFAT-CD226细胞上过表达的人TIGIT (human); assay: cell-based or functional assay
[2] = biological target: 表达于CHOK1细胞表面的人TIGIT (CHOK1/人TIGIT细胞, 吉满生物 GM-C01116) (human) (UniProt Q495A1); assay: flow cytometry on CHOK1/hTIGIT cells
[3] = biological target: 表达于CHOK1细胞表面的人TIGIT (CHOK1/人TIGIT细胞, 吉满生物 GM-C01116) (human) (UniProt Q495A1); assay: flow cytometry competition, inhibition of Biotinylated-CD155 (0.6μg/ml) binding to CHOK1/hTIGIT cells
[4] = biological target: 表达于CHOK1细胞表面的人TIGIT (CHOK1/人TIGIT细胞, 吉满生物 GM-C01116) (human) (UniProt Q495A1); assay: flow cytometry competition, inhibition of Biotinylated-CD155 (0.6μg/ml) binding to CHOK1/human TIGIT cells

Sequence of UniProt Q495A1 (Q495A1 22-244, one chain of several): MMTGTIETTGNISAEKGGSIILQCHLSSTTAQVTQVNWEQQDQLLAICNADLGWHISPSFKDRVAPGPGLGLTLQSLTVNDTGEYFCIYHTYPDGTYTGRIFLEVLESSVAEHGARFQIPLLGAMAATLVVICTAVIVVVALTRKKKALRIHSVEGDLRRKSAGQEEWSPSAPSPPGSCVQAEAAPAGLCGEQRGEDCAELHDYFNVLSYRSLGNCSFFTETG

- Max RLU [1]: 7110 RLU
- 最大RLU [1]: 6320 RLU
- 最大MFI [2]: 229 MFI
- 最大抑制 [3]: 6.36%
- 最大抑制 [4]: 3.03%
Substance: IgG对照 (antibody)
